Reference: patent US20120322150

Experiments:
[1] = target: T1, GST-BSU1-KL (N-terminal Kelch domain)
T1 chain: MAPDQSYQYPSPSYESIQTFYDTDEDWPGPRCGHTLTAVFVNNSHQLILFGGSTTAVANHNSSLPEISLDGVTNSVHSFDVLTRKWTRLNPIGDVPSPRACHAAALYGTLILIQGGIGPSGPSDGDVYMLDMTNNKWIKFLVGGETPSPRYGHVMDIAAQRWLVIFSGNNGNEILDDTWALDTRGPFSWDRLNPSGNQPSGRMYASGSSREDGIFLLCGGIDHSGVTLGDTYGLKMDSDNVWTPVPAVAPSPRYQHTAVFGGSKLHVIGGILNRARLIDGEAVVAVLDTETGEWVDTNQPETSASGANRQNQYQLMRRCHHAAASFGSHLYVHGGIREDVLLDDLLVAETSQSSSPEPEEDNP

[2] = target: T2, MBP-BZR1, Q8S307
T2 chain: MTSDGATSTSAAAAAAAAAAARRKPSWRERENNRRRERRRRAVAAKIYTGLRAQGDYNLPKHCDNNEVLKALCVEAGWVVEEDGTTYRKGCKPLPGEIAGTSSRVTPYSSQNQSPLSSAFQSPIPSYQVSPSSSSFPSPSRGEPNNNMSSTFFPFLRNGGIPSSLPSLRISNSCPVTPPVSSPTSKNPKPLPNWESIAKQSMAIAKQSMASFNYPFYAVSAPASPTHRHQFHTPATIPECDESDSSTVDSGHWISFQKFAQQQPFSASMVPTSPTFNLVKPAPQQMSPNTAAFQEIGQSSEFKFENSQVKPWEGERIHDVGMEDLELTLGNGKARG

[3] = target: T3, GST-BIN2, Q39011
T3 chain: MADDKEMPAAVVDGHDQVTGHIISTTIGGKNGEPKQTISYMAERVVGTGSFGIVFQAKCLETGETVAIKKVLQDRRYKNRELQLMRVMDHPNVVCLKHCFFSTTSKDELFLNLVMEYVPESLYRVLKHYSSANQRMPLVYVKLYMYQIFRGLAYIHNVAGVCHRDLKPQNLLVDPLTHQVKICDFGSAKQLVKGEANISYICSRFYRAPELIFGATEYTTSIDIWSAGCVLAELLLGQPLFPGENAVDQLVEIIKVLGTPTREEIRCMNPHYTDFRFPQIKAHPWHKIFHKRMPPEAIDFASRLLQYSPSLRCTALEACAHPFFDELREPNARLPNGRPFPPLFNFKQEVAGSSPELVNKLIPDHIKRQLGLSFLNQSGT

B1: GST-BIN2 (protein)
chain: MADDKEMPAAVVDGHDQVTGHIISTTIGGKNGEPKQTISYMAERVVGTGSFGIVFQAKCLETGETVAIKKVLQDRRYKNRELQLMRVMDHPNVVCLKHCFFSTTSKDELFLNLVMEYVPESLYRVLKHYSSANQRMPLVYVKLYMYQIFRGLAYIHNVAGVCHRDLKPQNLLVDPLTHQVKICDFGSAKQLVKGEANISYICSRFYRAPELIFGATEYTTSIDIWSAGCVLAELLLGQPLFPGENAVDQLVEIIKVLGTPTREEIRCMNPHYTDFRFPQIKAHPWHKIFHKRMPPEAIDFASRLLQYSPSLRCTALEACAHPFFDELREPNARLPNGRPFPPLFNFKQEVAGSSPELVNKLIPDHIKRQLGLSFLNQSGT
- BIN2 phosphorylation of MBP-BZR1 (in vitro kinase assay with 32P-γATP) [1]: the Kelch repeat domain showed no effect

B2: GST-AtSK12 (protein)
chain: MASVGIEPSAAVRESTGNVTDADRLPEEMKDMKIQDDKEMEATIVNGNVTETGHIIVTTIGGRNGQPKQTISYMAERVVGHGSFGVVFQAKCLETGETVAIKKVLQDRRYKNRELQTMRLLDHPNVVSLKHCFFSTTEKDELYLNLVLEYVPETVHRVIKHYNKLNQRMPLVYVKLYTYQIFRSLSYIHRCIGVCHRDIKPQNLLVNPHTHQVKLCDFGSAKVLVKGEPNISYICSRYYRAPELIFGATEYTTAIDVWSAGCVLAELLLGQPLFPGESGVDQLVEIIKVLGTPTREEIKCMNPNYTEFKFPQIKAHPWHKIFHKRMPPEAVDLVSRLLQYSPNLRCAALDSLVHPFFDELRDPNARLPNGRFLPPLFNFKPHELKGVPVEMVAKLVPEHARKQCPWLSL
- phosphorylation of MBP-BZR1 (in vitro kinase assay with 32P-γATP) [2]: AtSK12 strongly phosphorylates BZR1 in vitro

B3: GST-BSU1-P (C-terminal phosphatase domain) (protein)
chain: DNYMLLDDYLMDEPKPLSSEPEASSFIMRSTSEIAMDRLAEAHNLPTIENAFYDSAIEGYVPLQHGAETVGNRGGLVRTASLDQSTQDLHKKVISTLLRPKTWTPPANRDFFLSYLEVKHLCDEVEKIFMNEPTLLQLKVPIKVFGDIHGQYGDLMRLFHEYGHPSVEGDITHIDYLFLGDYVDRGQHSLEIIMLLFALKIEYPKNIHLIRGNHESLAMNRIYGFLTECEERMGESYGFEAWLKINQVFDYLPLAALLEKKVLCVHGGIGRAVTIEEIENIERPAFPDTGSMVLKDILWSDPTMNDTVLGIVDNARGEGVVSFGPDIVKAFLERNGLEMILRAHECVIDGFERFADGRLITVFSATNYCGTAQNAGAILVIGRDMVIYPKLIHPHPPPISSSEEDYTDKAWMQELNIEMPPTPARGESSE
- BIN2 phosphorylation of MBP-BZR1 (in vitro kinase assay with 32P-γATP) [3]: The phosphatase domain of BSU1 reduced BIN2 phosphorylation of BZR1
